Consider four molecules from patent publication EP4722254A1 (Sunshine Guojian Pharmaceutical (Shanghai) Co., Ltd., dated 2026).

Where “and” joins values, the source holds several entries; their conditions need not be identical. Identical values can stand only once.

Experiment [1] addresses FGFR2 on SNU-16 cells (human, UniProt P21802 22-821). Briefly: cell-based or functional assay.
Experiment [2] has as its target T1, Recombinant Human-FGFR2-His protein (human, UniProt P21802-3 22-378, limits assumed).
T1 construct: Bought protein; not shown: His tag
Briefly: ELISA, Human-FGFR2-His coated, anti-human Fc-HRP detection. In general terms: An ELISA detects its analyte on a solid surface through an enzyme-linked reagent.

In experiment [3] the target is T2, PD-1 expressed on the surface of Jurkat-PD-1-NFAT-luc cells (UniProt Q15116 25-288, limits assumed).
T2 construct: whole, on cells; also called cell surface PD-1 protein
Briefly: flow cytometry on Jurkat-PD-1-NFAT-luc cells, anti-human Fab-FITC detection. In general terms: In flow cytometry, cells or beads pass a laser one at a time.

The target of experiment [4] is T3, Recombinant Human-PD-1-His protein (human, UniProt Q15116 25-167, limits assumed).
T3 construct: not shown: His tag
Briefly: ELISA, Human-PD-1-His coated, anti-human Fc-HRP detection.

Experiment [5] addresses T2, PD-1 expressed on the surface of …. Description: cell-based or functional assay.

T1 sequence (P21802 other isoform, or with tags, fused parts or gaps limits assumed): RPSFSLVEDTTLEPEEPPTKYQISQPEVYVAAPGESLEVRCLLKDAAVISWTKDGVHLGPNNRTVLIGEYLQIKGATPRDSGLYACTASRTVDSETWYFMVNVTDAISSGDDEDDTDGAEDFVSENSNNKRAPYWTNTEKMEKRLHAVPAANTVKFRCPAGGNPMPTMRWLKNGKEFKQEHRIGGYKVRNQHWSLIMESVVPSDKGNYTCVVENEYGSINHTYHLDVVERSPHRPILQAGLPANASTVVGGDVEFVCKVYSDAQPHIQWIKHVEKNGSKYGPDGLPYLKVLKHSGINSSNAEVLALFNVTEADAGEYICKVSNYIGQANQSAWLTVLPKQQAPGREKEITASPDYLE
T3 sequence (Q15116 25-167 limits assumed): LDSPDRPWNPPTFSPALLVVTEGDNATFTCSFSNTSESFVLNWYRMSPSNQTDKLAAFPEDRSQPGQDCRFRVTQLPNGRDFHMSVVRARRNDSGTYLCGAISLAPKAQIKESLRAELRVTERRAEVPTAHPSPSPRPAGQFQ
T2 sequence (Q15116 25-288 limits assumed): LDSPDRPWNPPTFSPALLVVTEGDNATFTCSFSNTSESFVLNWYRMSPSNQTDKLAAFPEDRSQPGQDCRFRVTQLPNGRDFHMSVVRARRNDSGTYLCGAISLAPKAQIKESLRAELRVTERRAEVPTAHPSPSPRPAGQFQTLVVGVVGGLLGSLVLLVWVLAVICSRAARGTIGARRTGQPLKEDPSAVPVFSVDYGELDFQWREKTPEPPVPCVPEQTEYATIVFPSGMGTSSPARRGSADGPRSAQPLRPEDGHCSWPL
FGFR2 on SNU-16 cells, sequence (P21802 22-821): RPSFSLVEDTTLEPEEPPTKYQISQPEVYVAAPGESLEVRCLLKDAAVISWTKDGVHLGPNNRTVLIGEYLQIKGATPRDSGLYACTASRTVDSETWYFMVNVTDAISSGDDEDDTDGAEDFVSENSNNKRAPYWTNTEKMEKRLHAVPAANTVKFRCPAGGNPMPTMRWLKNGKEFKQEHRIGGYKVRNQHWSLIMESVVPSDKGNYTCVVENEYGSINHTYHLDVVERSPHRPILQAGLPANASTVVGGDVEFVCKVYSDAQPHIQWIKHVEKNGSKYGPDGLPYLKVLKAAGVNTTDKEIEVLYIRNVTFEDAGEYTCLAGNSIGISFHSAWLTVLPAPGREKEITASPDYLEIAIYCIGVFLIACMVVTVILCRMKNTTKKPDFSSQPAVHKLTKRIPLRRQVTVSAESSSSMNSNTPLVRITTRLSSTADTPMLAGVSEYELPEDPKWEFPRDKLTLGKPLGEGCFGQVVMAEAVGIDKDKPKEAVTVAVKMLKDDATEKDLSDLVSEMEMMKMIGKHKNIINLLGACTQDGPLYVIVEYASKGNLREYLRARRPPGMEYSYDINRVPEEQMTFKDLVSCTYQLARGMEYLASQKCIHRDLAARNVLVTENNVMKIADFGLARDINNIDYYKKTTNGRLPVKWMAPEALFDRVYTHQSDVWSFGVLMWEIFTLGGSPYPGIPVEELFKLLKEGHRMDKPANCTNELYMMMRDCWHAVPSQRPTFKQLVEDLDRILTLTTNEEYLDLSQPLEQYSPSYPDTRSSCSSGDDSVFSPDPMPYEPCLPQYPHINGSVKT

B1: anti-FGFR2 monoclonal antibody (antibody, human IgG1, kappa, V domains shown)
VH: QVQLVQSGAEVKKPGSSVKVSCKASGYTFTSYWMHWVRQAPGQGLEWMGAIYPGNSDTDYSGKFKGRVTITADESTSTAYMELSSLRSEDTAVYYCSKFDYWGQGTLVTVSS
VL: EIVLTQSPATLSLSPGERATLSCRASSSVNYMYWYQQKPGQAPRPWIYLTSNRATGVPARFSGSGSGTDYTLTISSLEPEDFAVYYCQQWSSNPYTFGQGTKLEIKR
notes: also called positive control anti-FGFR2 monoclonal antibody; anti-FGFR2 mAb
With B1, the “EC50 of ADCC (NK cell killing of SNU-16 cells, LDH release)” value in experiment [1] amounted to 3.03 nM. In experiment [2], the EC50 was 0.0392 nM and 0.0297 nM.

B2: anti-FGFR2/PD-1 bispecific antibody a (bispecific antibody, human IgG1, kappa)
heavy: not shown
light: EIVLTQSPATLSLSPGERATLSCRASSSVNYMYWYQQKPGQAPRPWIYLTSNRATGVPARFSGSGSGTDYTLTISSLEPEDFAVYYCQQWSSNPYTFGQGTKLEIKRTVAAPSVFIFPPSDEQLKSGTASVVCLLNNFYPREAKVQWKVDNALQSGNSQESVTEQDSKDSTYSLSSTLTLSKADYEKHKVYACEVTHQGLSSPVTKSFNRGEC
notes: Anti-FGFR2 IgG with an anti-PD-1 scFv (VL-L1-VH) on the C-terminus of each heavy chain; wild-type Fc; also called anti-FGFR2/PD-1 bispecific antibody molecule a
As for B2, the concentration giving a half-maximal response (EC50) in experiment [3] was 0.482 nM; in experiment [4], 0.122 nM and 0.16 nM; in experiment [2] it was 0.0568 nM. In addition, the “IC50 for the blockade of PD-1 and PD-L1 binding (NFAT-luc reporter luminescence)” value in experiment [5] came out at 0.481 nM.

B3: anti-FGFR2/PD-1 bispecific antibody d (bispecific antibody, human IgG1, kappa)
heavy: not shown
light: B2 light
notes: Anti-FGFR2 IgG with an anti-PD-1 scFv in VH-L1-VL order on the C-terminus of each heavy chain; also called anti-FGFR2/PD-1 bispecific antibody molecule d
On to B3, for which the half-maximal effective concentration (EC50) worked out at 0.356 nM in experiment [4] and 0.0615 nM in experiment [2].

B4: anti-FGFR2/PD-1 bispecific antibody b (bispecific antibody, human IgG1, kappa)
heavy: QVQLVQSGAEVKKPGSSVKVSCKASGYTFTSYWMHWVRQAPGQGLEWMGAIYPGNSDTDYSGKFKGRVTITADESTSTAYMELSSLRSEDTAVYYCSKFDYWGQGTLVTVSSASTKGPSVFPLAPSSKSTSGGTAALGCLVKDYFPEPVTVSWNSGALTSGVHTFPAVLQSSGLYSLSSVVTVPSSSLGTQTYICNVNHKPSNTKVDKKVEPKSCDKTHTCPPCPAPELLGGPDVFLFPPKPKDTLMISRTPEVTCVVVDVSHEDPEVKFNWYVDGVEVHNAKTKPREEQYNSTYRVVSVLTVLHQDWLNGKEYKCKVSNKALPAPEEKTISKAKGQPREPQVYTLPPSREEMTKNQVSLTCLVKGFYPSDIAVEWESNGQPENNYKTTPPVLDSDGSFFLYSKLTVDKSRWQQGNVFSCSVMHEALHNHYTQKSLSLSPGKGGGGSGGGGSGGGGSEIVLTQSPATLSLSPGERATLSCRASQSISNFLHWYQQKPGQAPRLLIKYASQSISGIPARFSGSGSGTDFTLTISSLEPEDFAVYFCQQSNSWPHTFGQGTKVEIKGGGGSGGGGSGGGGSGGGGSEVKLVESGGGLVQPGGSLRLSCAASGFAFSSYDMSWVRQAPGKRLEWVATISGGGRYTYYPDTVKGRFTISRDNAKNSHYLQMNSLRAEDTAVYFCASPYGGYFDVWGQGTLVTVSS
light: B2 light
notes: also called anti-FGFR2/PD-1 bispecific antibody molecule b
As for B4, the figures for the EC50 in experiment [3], in experiment [4] and in experiment [2] were 0.634 nM, 0.141 nM and 0.0512 nM, respectively. Besides, the “EC50 of ADCC (NK cell killing of SNU-16 cells, LDH release)” value in experiment [1] came to 4.62 nM. The “IC50 for the blockade of PD-1 and PD-L1 binding (NFAT-luc reporter luminescence)” value in experiment [5] was 2.35 nM.

For orientation: EC50 means the concentration at which the effect is half-maximal.
